In IntAct's records for PubMed 22057290:

B1: Ubiquitin carboxyl-terminal hydrolase CYLD (Homo sapiens), Q9NQC7 (parent)
chain: MSSGLWSQEKVTSPYWEERIFYLLLQECSVTDKQTQKLLKVPKGSIGQYIQDRSVGHSRIPSAKGKKNQIGLKILEQPHAVLFVDEKDVVEINEKFTELLLAITNCEERFSLFKNRNRLSKGLQIDVGCPVKVQLRSGEEKFPGVVRFRGPLLAERTVSGIFFGVELLEEGRGQGFTDGVYQGKQLFQCDEDCGVFVALDKLELIEDDDTALESDYAGPGDTMQVELPPLEINSRVSLKVGETIESGTVIFCDVLPGKESLGYFVGVDMDNPIGNWDGRFDGVQLCSFACVESTILLHINDIIPALSESVTQERRPPKLAFMSRGVGDKGSSSHNKPKATGSTSDPGNRNRSELFYTLNGSSVDSQPQSKSKNTWYIDEVAEDPAKSLTEISTDFDRSSPPLQPPPVNSLTTENRFHSLPFSLTKMPNTNGSIGHSPLSLSAQSVMEELNTAPVQESPPLAMPPGNSHGLEVGSLAEVKENPPFYGVIRWIGQPPGLNEVLAGLELEDECAGCTDGTFRGTRYFTCALKKALFVKLKSCRPDSRFASLQPVSNQIERCNSLAFGGYLSEVVEENTPPKMEKEGLEIMIGKKKGIQGHYNSCYLDSTLFCLFAFSSVLDTVLLRPKEKNDVEYYSETQELLRTEIVNPLRIYGYVCATKIMKLRKILEKVEAASGFTSEEKDPEEFLNILFHHILRVEPLLKIRSAGQKVQDCYFYQIFMEKNEKVGVPTIQQLLEWSFINSNLKFAEAPSCLIIQMPRFGKDFKLFKKIFPSLELNITDLLEDTPRQCRICGGLAMYECRECYDDPDISAGKIKQFCKTCNTQVHLHPKRLNHKYNPVSLPKDLPDWDWRHGCIPCQNMELFAVLCIETSHYVAFVKYGKDDSAWLFFDSMADRDGGQNGFNIPQVTPCPEVGEYLKMSLEDLHSLDSRRIQGCARRLLCDAYMCMYQSPTMSLYK

Variants of: B1
Conditions: with itch_human ITCH

| effect of a mutation on the interaction | Variant |
| --- | --- |
| disrupting interaction | Y485A |
